The values that follow are results of earlier work, collected in paper PMC7463749.

The Ki is the dissociation constant of the complex between target and ligand, obtained from inhibition or displacement.

Data set [1] addresses BB2R (Homo sapiens) (UniProt P30550).
Data set [2] concerns the target BB1R (Homo sapiens) (UniProt P28336).
Chain of UniProt P28336 (P28336 whole entry): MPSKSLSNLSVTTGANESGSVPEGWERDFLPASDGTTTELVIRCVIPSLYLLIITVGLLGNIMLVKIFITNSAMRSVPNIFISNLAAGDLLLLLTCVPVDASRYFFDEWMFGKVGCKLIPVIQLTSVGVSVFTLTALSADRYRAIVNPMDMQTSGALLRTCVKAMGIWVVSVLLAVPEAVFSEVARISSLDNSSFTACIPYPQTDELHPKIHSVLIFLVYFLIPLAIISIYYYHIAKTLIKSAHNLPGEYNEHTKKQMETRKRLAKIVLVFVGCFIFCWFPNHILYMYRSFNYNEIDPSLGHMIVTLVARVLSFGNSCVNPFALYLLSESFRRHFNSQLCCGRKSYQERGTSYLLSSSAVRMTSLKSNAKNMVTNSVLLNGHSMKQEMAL

Chain of UniProt P30550 (P30550 whole entry): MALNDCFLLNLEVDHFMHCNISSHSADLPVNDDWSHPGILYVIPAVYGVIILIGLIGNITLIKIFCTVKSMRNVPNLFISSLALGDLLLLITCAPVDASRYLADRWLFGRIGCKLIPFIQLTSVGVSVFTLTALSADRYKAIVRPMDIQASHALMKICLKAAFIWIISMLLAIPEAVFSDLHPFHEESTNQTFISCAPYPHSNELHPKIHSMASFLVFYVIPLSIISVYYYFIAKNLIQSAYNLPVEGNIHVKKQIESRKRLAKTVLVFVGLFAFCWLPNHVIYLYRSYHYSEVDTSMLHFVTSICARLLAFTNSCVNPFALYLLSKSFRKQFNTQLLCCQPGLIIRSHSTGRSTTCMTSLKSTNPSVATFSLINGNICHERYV

As for “gastrin-releasing peptide (from UniProt P07492)”, the Ki in data set [1] is 0.19 nM.

Consider neuromedin B (from UniProt P08949), for which the Ki in data set [2] is 0.052 nM.
